From the Human Domainome abundance scans (Beltran et al. 2025)

B1: Zinc finger homeobox protein 3, residues 2147 to 2202; numbered along this chain, Q15911 (parent)
chain: RPRTRITDDQLRVLRQYFDINNSPSEEQIKEMADKSGLPQKVIKHWFRNTLFKERQ
B2: Intersectin-2, residues 1129 to 1183; numbered along this chain, Q9NZM3 (parent)
chain: VCQVIAMYDYAANNEDELSFSKGQLINVMNKDDPDWWQGEINGVTGLFPSNYVKM

Variants of: B1
Assay: abundance fitness (aPCA) (normalised: wild type 0, dead -1); higher = more abundant; growth selection in yeast, the domain comes from the species named
Conditions: Homo sapiens

Abundance fitness of substitutions, site by site:
R3: G 0.143; F -0.275; E 0.184; H 0.172; C -0.426; D 0.215
P2: V 0.018; I 0.105; R 0.127; E 0.184; C -0.608; W -0.679; S 0.102; T 0.279; A -0.134; M 0.171; Q 0.215; Y -0.057; D 0.38; N 0.28; G -0.005; L 0.086; H 0.012
R1: A -0.652; M -0.573; W -0.979; S -0.399; L -0.303; T -0.271; G -0.247; C -0.134; E -0.832; F -0.385; N 0.078; P -0.165; I -0.433; Y 0.022

Variants of: B2
Assay: as above
Conditions: Homo sapiens

Abundance fitness: each site, then its substitutions
K54: P -0.507; C -0.12; Y -0.104; F -0.148; L -0.177; S -0.055; G -0.172; H -0.068; A -0.119; I -0.123; M -0.154; V -0.161; W -0.388; E -0.032; Q -0.049; R 0.099; N -0.08; D -0.05; T 0.014
N51: L -0.149; Q -0.081; A -0.075; C -0.044; R -0.026; E -0.154; P -0.038; D -0.005; I -0.077; H -0.025; W -0.121; G -0.021; S -0.02; Y -0.067; T -0.034; F -0.141; M -0.071
V44: K -0.056; H 0.028; Y -0.101; C -0.023; L -0.033; W -0.151; Q -0.083; G 0.001; E -0.108; M -0.169; S -0.046; A -0.006; T -0.052; F -0.098; D -0.117; R -0.055; I 0.027; P -0.438; N -0.049
V53: Q -0.564; T 0.03; K -0.902; R -0.703; P -0.905; H -0.477; E -0.666; M -0.379; C -0.054; I 0.065; G -0.116; L -0.623; A -0.071; W -1.11
S50: P -0.015; Q -0.037; N -0.1; E -0.266; A -0.046; M 0.004; L -0.166; G -0.109; C -0.139; T -0.084; K -0.074; D -0.98; W -0.399; I -0.084; Y -0.128
E40: A -0.055; G -0.157; R -0.059; Y -0.176; W -0.15; Q -0.114; F -0.142; S 0.003; N -0.143; C -0.037; K -0.037; H -0.08; M -0.08; D -0.045; P -0.963
T45: M -0.145; K -0.03; D -0.1; E -0.053; P -0.083; V -0.092; N -0.062; R -0.076; Q -0.024; F -0.051; C -0.087; S -0.003; L -0.031; I -0.103; A -0.044; G -0.042; W -0.153
G39: D -0.726; P -0.864; E -0.913; S -0.937; A -0.699; T -0.89; K -0.999; H -0.896; V -1.02; C -0.995; Q -0.992; Y -0.878; R -1.06; F -0.854; N -0.831; W -1.18; I -0.942
Y52: S -0.066; I -0.023; N -0.107; K 0.082; M -0.002; L 0.037; H 0.009; F 0.15; G -0.122; E -0.192; T -0.065; W -0.139; C -0.042; D -0.575; R -0.019; P -0.544
G46: K -0.1; D -0.799; F -0.864; E -0.973; Q -0.945; W -0.92; P -1.01; T -0.788; R -0.318; C -0.606; A -0.137; M -1.06; S -0.764; N -0.483; Y -0.807; H -1.05; L -0.701; I -1.14
P49: L -0.143; N -0.106; K -0.017; T -0.746; D -0.482; Y -0.104; R 0.017; S -0.195; H -0.1; F -0.358; M -0.086; V -0.782; A -0.193; Q -0.129; E -0.442; I -0.49
G43: Q -0.202; T -0.128; V -0.765; D -0.044; A -0.044; P -0.908; E -0.032; K 0.029; L -0.175; S -0.024; R -0.069; Y -0.237; M -0.08; I -0.865; H -0.025; W -0.404
N42: L -0.068; E 0; Q -0.084; Y -0.082; C 0.014; V -0.1; A -0.013; M -0.046; F -0.126; K -0.093; P -0.473; G -0.042; I -0.196; R -0.054; S -0.021; W -0.148; D -0.16; T -0.01; H 0
Q38: R -0.029; H 0.04; C -0.027; I 0.105; T -0.038; G -0.05; V -0.033; W -0.276; F -0.059; M -0.074; A -0.009; K 0.005; N -0.248; D -0.024; S -0.046; P -0.654; Y -0.012; L -0.072; E -0.003
I41: P -1.01; D -0.624; N -0.159; C -0.148; L -0.012; T -0.017; S -0.038; V -0.055; R -0.028; K -0.094; F 0.079; A 0.016; M -0.032; H 0.022; Q -0.085; E -0.478
M55: T -0.06; R -0.088; G -0.097; K -0.233; L -0.095; Q -0.09; A 0.079; E 0.009; S 0.007; W -0.255; V -0.103
F48: G -0.945; T -0.85; W -1; D -0.806; I -0.085; S -0.775; E -0.834; M -0.092; Y -0.898; V -0.027; K -1; C -0.199; P -0.718; L 0; N -1.17; Q -0.778; A -0.69; H -0.937
L47: Y -0.04; P -0.257; W -0.061; Q -0.019; G -0.023; T -0.014; C -0.185; N -0.086; I -0.183; K 0.039; A -0.007; D -0.142; S -0.011; M -0.128; H -0.061
